Data as given in publication PMC9616737 (2022).

Molecular target: human plasma fibronectin (human)
Sequence (P02751 other isoform, or with tags, fused parts or gaps): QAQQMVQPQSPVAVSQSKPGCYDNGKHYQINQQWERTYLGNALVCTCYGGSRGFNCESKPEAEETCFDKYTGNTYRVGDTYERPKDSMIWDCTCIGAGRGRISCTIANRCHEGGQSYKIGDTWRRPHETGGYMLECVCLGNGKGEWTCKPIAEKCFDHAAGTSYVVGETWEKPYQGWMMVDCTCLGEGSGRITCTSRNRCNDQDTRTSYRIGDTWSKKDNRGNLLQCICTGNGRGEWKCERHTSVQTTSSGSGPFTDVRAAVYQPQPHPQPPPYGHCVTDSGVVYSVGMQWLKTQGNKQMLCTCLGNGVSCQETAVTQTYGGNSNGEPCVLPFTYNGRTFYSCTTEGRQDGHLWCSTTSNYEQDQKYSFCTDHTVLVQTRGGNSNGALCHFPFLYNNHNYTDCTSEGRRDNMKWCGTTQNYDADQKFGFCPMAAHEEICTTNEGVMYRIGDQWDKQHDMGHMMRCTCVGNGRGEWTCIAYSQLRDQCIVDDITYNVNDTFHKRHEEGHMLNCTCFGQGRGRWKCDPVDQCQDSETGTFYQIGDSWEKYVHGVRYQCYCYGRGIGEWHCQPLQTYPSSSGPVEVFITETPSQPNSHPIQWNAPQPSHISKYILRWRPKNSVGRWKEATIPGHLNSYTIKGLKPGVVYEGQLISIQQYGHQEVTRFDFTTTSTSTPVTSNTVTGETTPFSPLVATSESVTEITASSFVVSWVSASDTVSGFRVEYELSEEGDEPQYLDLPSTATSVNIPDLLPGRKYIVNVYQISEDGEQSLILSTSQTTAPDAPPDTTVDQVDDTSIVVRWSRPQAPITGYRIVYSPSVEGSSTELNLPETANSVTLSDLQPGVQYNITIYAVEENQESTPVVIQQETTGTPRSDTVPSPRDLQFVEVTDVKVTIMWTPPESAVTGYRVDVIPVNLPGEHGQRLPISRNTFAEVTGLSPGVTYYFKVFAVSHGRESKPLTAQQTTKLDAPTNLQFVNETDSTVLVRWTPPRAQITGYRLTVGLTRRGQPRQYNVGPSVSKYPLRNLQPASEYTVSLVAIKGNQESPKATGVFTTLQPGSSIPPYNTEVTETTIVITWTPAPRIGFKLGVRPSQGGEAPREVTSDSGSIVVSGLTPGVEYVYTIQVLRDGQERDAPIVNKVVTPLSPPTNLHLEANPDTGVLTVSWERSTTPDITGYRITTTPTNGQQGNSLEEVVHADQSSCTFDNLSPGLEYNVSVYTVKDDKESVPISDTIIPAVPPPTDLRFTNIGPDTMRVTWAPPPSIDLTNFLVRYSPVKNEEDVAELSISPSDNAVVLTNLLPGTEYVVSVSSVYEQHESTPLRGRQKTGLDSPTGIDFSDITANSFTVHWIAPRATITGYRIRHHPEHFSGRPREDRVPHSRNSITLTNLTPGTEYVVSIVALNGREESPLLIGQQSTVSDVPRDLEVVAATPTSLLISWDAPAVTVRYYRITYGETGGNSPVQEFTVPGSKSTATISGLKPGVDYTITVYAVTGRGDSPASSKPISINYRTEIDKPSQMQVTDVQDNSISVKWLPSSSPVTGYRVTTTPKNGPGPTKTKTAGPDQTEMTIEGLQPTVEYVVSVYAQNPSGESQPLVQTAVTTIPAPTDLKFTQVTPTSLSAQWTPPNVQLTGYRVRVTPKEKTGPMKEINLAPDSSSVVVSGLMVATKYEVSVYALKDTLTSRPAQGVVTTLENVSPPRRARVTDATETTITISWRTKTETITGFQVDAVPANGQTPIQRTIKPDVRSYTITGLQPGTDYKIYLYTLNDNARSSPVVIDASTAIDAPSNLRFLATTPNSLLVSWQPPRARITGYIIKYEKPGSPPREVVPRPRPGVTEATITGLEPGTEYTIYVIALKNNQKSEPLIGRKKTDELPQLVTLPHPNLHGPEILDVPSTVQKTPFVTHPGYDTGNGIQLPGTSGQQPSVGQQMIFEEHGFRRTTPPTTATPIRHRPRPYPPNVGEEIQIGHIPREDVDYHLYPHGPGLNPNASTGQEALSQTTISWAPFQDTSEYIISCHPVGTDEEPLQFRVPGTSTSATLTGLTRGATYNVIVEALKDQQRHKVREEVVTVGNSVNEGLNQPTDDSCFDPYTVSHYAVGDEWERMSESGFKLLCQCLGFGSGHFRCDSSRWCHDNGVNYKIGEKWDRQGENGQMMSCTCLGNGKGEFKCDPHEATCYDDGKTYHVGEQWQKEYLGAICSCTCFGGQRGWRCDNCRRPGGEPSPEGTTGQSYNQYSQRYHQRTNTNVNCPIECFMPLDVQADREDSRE

B1: recombinant embigin extracellular domain GST-fusion protein (EMB-GST) (domain or fragment)
chain: DGSAPDSPFTSPPLREEIMANNFSLESHNISLTEHSSMPVEKNITLERPSNVNLTCQFTTSGDLNAVNVTWKKDGEQLENNYLVSATGSTLYTQYRFTIINSKQMGSYSCFFREEKEQRGTFNFKVPELHGKNKPLISYVGDSTVLTCKCQNCFPLNWTWYSSNGSVKVPVGVQMNKYVINGTYANETKLKITQLLEEDGESYWCRALFQLGESEEHIELVVLSYLVP
For B1, the Kd was < 50 nM.
